PMC6975058

Tests used:
[1] = molecular target: trastuzumab light chain, refolded in vitro by slow dialysis; test: SEC; SEC-HPLC under native conditions, Zenix-C SEC-300, mobile phase PBS, 0.35 ml/min, absorbance at 214 nm; the isolated chain alone
[2] = molecular target: trastuzumab heavy chain produced alone in HEK293 (in vivo folded HC); test: denaturing, non-reducing SDS-PAGE; MiniProtean TGX Stain-free gels 4-20%, band densitometry; shows only disulfide-linked species
[3] = molecular target: trastuzumab light chain produced alone in HEK293 (in vivo folded LC); test: SEC; SEC-HPLC under native conditions, Zenix-C SEC-300, mobile phase PBS, 0.35 ml/min, absorbance at 214 nm; the isolated chain alone
[4] = molecular target: trastuzumab light chain produced alone in HEK293 (in vivo folded LC); test: denaturing, non-reducing SDS-PAGE; MiniProtean TGX Stain-free gels 4-20%, band densitometry; shows only disulfide-linked species

trastuzumab light chain, refolded in vitro by slow dialysis (domain or fragment)
stoichiometry N [1]: 2

trastuzumab heavy chain produced alone in HEK293 (in vivo folded HC) (domain or fragment)
stoichiometry N [2]: 2

trastuzumab light chain produced alone in HEK293 (in vivo folded LC) (domain or fragment)
stoichiometry N [3]: 2
percent of LC in the 42 KDa band under denaturing conditions [4]: 55%
